Test results from the supplement of paper PMC12042874.
± gives the uncertainty stated by the source.

Assay: amyloid nucleation score (Sup35N fusion, yeast selection) (log enrichment); library NNK3; higher = more nucleation; inactive = no reads after selection
Summary of the method: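 Sup35N fusions to peptides of 20 random codons were expressed in psi-negative yeast, induced 24 hours with 100 μM copper sulfate, and grown 7 days at 30°C on medium lacking adenine and uracil. Input and output plasmid inserts were sequenced by Illumina. The nucleation score is the DiMSum log enrichment of output over input reads, centred on the mode score of non-aggregating sequences. Sequences with under 100 input reads were excluded.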

| Substance | amyloid nucleation score |
| --- | --- |
| LSLNMVTDGIDDNGGNG | inactive |
| VCIPYMVVVFISSIP | 1.72 ± 0.11 |
| TIFLSSRGVILYTVSCYKFV | inactive |
| IEFGYLGT | inactive |
| YFSKVIVDLKNSCIL | inactive |
| YCSVFRES | 0.014 ± 0.63 |
| RFMFSLFMNEGNMLHMLRRV | inactive |
| SLRFCWILGENQSGTCSIKR | 1.16 ± 0.15 |
| FYFKR | inactive |
| TRCGFS | inactive |
| DSLSDLLYSFKFKG | inactive |
| RTPPLRTQLESKSIFKEMAR | inactive |
| WPMMATLQYHDLLLAFLFRK | inactive |
| IRLLATF | inactive |
| MILCLLRKAQFCY | inactive |
| GSALSSLFQCLLFPLSVSVL | 0.49 ± 0.21 |
| SKLYYHNQLCFILMHTA | inactive |
| DLFSFYVGCLKSHPENPSLM | inactive |
| RIKSSTYSMSLVGAQ | inactive |
| YHLSSMVTVWKDSVMLAT | inactive |
| TYRLAVLS | inactive |
| NFINYLR | inactive |

| Substance | amyloid nucleation score |
| --- | --- |
| RDRSVKRVVHSGFRFSIGEA | inactive |
| SVLRYYSNESRLTVHLSVCI | inactive |
| RRTWGSMYTKVLSISFLGPG | 1.48 ± 0.1 |
| PFCVCRLL | inactive |
| ILTKRTAAFDPLGLKNWERC | -0.398 ± 1.7 |
| ITCANALLCDGSRFSM | 0.741 ± 0.16 |
| IPVNYLASDMFN | inactive |
| VDKQPDLIAHRMWTKVG | inactive |
| IRFSKTLRVIVHGEGNGKLC | inactive |
| APDVQYFYSLQD | inactive |
| WYSNLMCTWISDDKTWQRIR | inactive |
| DFCMWSYRHRDLCNSVFISS | inactive |
| YIYVIGWGNVLCGI | 2.22 ± 0.079 |
| YCKSPVSANMHMNNGNTGSC | inactive |
| HYFSYIINTAMMRKAYILSG | 0.543 ± 0.14 |
| FVDWFLVGCRMVMLDRVLAS | inactive |
| IYSLYRCPFAVCLSSNWSCF | 1.78 ± 0.11 |
| EVCFIRLLLLYCR | inactive |
| ALFSLSWLNQRDSIWVKSDQ | inactive |
| LSYYVS | inactive |
| FAYLF | inactive |
| TSSQKDIWQDVYGLLFWAQS | inactive |

| Substance | amyloid nucleation score |
| --- | --- |
| RHCWVPGCDRQCKWYFEGTS | inactive |
| KRYMIPKIYERNENYSFEQI | inactive |
| LGVTGINSVIYMYEMVS | inactive |
| LGRYWHVIKLDLVPHMKWCE | inactive |
| RMSLRAELVKVNLEAIPNWT | inactive |
| SVILCFSV | inactive |
| VRVDDKSNCVTRRFKP | inactive |
| INSLFLRERICRVRCPGFAS | inactive |
| TACMRNVRTNIGKHTSQYLH | inactive |
| TLSFCWWRFMLVCRGVGGGR | inactive |
| CLFSLPWWCSMM | inactive |
| LTGFYYFTAYVCPNLILVTR | 0.878 ± 0.14 |
| SKNATIQAMFERLVVVIS | inactive |
| DYYTVCQAWIYIGFAILKW | inactive |
| ALPYCSLVGCYVCKCRLMWL | 0.541 ± 0.34 |
| LASPVNETDTLHRALQMLSK | inactive |
| VTLSGCIDLVWVCGVT | 2.01 ± 0.099 |
| LTVRSHHQAGDMCRRRAISP | inactive |
| CIHSRTNNIRMTNCVRLGLG | inactive |
| NRGFYQ | inactive |
| DLCAEFWIYWHVTMPVYLEM | inactive |
| KSCLGKRLISSFC | inactive |
